target: LexA/Bax fusion protein (murine) (UniProt P0A7C2)

Substance	colony formation of yeast cotransformed with LexA/Bax, galactose medium (neutralization of Bax activity)
B42/Bcl-2(1-81) hybrid	19
B42/Bcl-2(1-218) hybrid	280
B42/Lamin	8
B42/Mcl-1 hybrid	290

Results, then the substance that gave them:

colony formation of yeast cotransformed with LexA/Bax, galactose medium (neutralization of Bax activity)	Substance
16	B42/Bcl-2(83-218) hybrid
300	B42/Bcl-X-L hybrid
10	B42/Bcl-X-S hybrid
